B1: MBP-fused Apc1-loop^500 WT fragment [Xenopus tropicalis] / Plx1-PBD WT (polo-box domain of Plx1) [Xenopus laevis] (parent)
chain 1: EPADCYLSEMLQQLTCLNAVKPSERALIRQEEAEDPASIPIFWISKWVDYSDKYGLGYQLCDNSVGVLFNDSTRLIMYNDGDSLQYIERNNTESYLNVRSYPTTLTKKITLLKYFRNYMSEHLLKAGANTTPREGDELARLPFLRTWFRTRSAIILHLSNGTVQINFFQDHTKIILCPLMAAVSYIDEKREFRTYKLSLIQEFGCCKELASRLRYARTMVEKLQSSKSAVAHVKASA
chain 2: GLAAPSLGMSNPMPRPSTPLESISTPAKPLNKHLAPMDEAGMLSPVPELRDSTRLHESTYLDDCTFHQFG
B2: MBP-fused Apc1-loop^500 WT fragment [Xenopus tropicalis] / Plx1 (polo-like kinase homolog in Xenopus laevis), endogenous [Xenopus laevis (endogenous in egg extracts)] (parent)
chain 1: MAQVAGKKLTVAPEAAKPPGIPGSSSAVKEIPEILVDPRTRRRYLRGRFLGKGGFAKCYEITDLESREVFAGKIVPKTMLLKPHQKDKMTMEIAIQRSLDHRHVVGFHGFFEDNDFVYVVLELCRRRSLLELHKRRKAVTEPEARYYLKQTISGCQYLHSNRVIHRDLKLGNLFLNDEMEVKIGDFGLATKVEYDGERKKTLCGTPNYIAPEVLGKKGHSFEVDIWSIGCIMYTLLVGKPPFETSCLKETYMRIKKNEYSIPKHINPVAAALIQKMLRSDPTSRPTIDDLLNDEFFTSGYIPSRLPTTCLTVPPRFSIAPSTIDQSLRKPLTAINKGQDSPLVEKQVAPAKEEEMQQPEFTEPADCYLSEMLQQLTCLNAVKPSERALIRQEEAEDPASIPIFWISKWVDYSDKYGLGYQLCDNSVGVLFNDSTRLIMYNDGDSLQYIERNNTESYLNVRSYPTTLTKKITLLKYFRNYMSEHLLKAGANTTPREGDELARLPFLRTWFRTRSAIILHLSNGTVQINFFQDHTKIILCPLMAAVSYIDEKREFRTYKLSLIQEFGCCKELASRLRYARTMVEKLQSSKSAVAHVKASA
chain 2: B1 chain 2

Variants of: B1
Assay: MBP pull-down (amylose beads), SDS-PAGE with Coomassie brilliant blue staining, quantified
Conditions: anaphase extracts supplemented with non-degradable cyclin B, 23°C, 1 h, then 10 µg WT Plx1-PBD for 15 min, parent: 1, read off a plot

Row | ratio to parent | Variant
1 | 0.03 | chain 2 T18A T25A

Variants of: B1
Assay: MBP pull-down (amylose beads), SDS-PAGE with Coomassie brilliant blue staining, quantified as bound Plx1-PBD per Apc1-loop500
Conditions: with MBP-fused Apc1-loop^500 WT fragment [Xenopus tropicalis]; input 10 µg Plx1-PBD, 15 min; Apc1-loop500 pre-incubated in anaphase extracts with non-degradable cyclin B, 23°C, 1 h; parent: 1.1; read off a plot

Row | response [A.U.] | Variant
2 | 0.07 | chain 1 H171A K173M

Same assay, conditions: with MBP-fused Apc1-loop^500 WT fragment [Xenopus tropicalis]; input 15 µg Plx1-PBD, 15 min; Apc1-loop500 pre-incubated in anaphase extracts with non-degradable cyclin B, 23°C, 1 h; parent: 1.4; read off a plot

Row | response [A.U.] | Variant
3 | 0.09 | chain 1 H171A K173M

Variants of: B2
Assay: MBP pull-down (amylose beads) from Xenopus egg anaphase extracts, immunoblot with Plx1 antibody, quantified
Conditions: anaphase extracts supplemented with non-degradable cyclin B, 23°C, 1 h, parent: 1, read off a plot

Row | ratio to parent [A.U.] | Variant
4 | 0.51 | chain 2 T18A T25A
5 | 0.61 | chain 2 T25A

The remaining lines, values behind:

Row | Variant | ratio to parent [A.U.]
6 | chain 2 S44A | 0.5
7 | chain 2 T18A | 0.92

From article PMC8441438, “Dynamic regulation of mitotic ubiquitin ligase APC/C by coordinated Plx1 kinase and PP2A phosphatase action on a flexible Apc1 loop” (The EMBO Journal, 2021)
